The term Kd denotes the equilibrium constant for the complex coming apart. High values mean weaker binding, low ones tighter binding.

Results on one molecule are retold here after patent US20160130333A1.

The target of the experiment is histones. The experiment in a line: ELISA.

B1: murine IMMU-H4 antibody (parental murine anti-histone H4 antibody) (antibody, V domains shown)
VH: QVQLQQSGAELVRPGASVKLSCTASGFNIKDDYLHWVKQRPEQGLEWIGWIDPENGDTEYASKFQGKATITADTSSNTAYLQLSSLTSEDTAVYYCSSPLVHLRTFAYWGQGTLVTVS
VL: DIQLTQSPASLAVSLGQRATISCRASESVDSYDNSLHWFQQKPGQPPKLLIYLASNLESGVPARFSGSGSRTDFTLTIDPVEADDAATYYCQQNNEDPWTFGGGTKLEIKR
Consider B1, for which the dissociation constant Kd was found to be 6.6 nM.
